# Results: the DeepSol protein solubility set
# Assay: soluble on expression in E. coli; label from the status in PepcDB or PDB records
row,Sequence,soluble on expression in E. coli
1,MSLEVIKHDGPGRLGVIRLEPPVQTPALAGVDFTLSPFNSFFYPKDYKEYDFNLAPAIPLSYYTPDEIIKKAVKRLWEVDYSKFNAFYFPALKRTKHYEELFKIIEENDFDAIYIGNSKSMIKDYRGFVFTMRELREKFPNAVLITDLEPFFYPLAVYLGIDAFDIRSLKIYSYEGLGFTQFSPIIWDEPKEDPVEYAKKIIRLIRIAIHEGKLRYLVENFLPTSMNAGILRIADRENIEYLEKYTPVDDKTVVFISDYSMTRPEVYRWAKRVRERFEPPKDIELLLILPCSAKKPYSRSRSHTLYRSAVKEALGEKMHRVHELIVTSPYGVVPREWEWIAKYDIVVTGHWSEREVRLAGELLADVLEKYPDIPIIAHVEGGYREAVKLAMELSGRDVIFTAKGNSTTSRESLANLTKTLKEFDVRDVDKEYRRYRFYENIRKIFDFYFGLNAGYAVLPERAQVVGSKMLRLIVDNQQTGTFQEGVISVTPWGMQRIYDELHSYWVEIDFDVRGDIFAAGVGSADEKIRPNDWVGVVRDGKVVAVGRAVLSGEEMVKAKRGVAVKVKKKAKEGHHHHHH,soluble
2,MSLEYKYELTIDKLLQSGVSSNPDQIINYTGKREFTFKDFSKRVNTLAKALISIGVKKGDRVAVIDWDTYVYLEAYFAVPMVDAVLHTVNVRYPQDLIYYTMDHAEDKYVIVRDEFVPILSKNREAFYFIKGWIVYSETGQIPDSLSPKYVYDDLMKESYSDIELPQLSENDLATTFYTSGTTGIPKGVQFTHRQIVLHSISSGLALADDPINLTSRDVIMPLVPMFHVHAWGVPYMSIMSGRRYVLPGRYDFDHIIDLIDKYNVSVIAMVPSILYLIVTNPNVKKIAGRGIKAIVGGGALPEGLANAAEKLGITAISGYGLSETAPILTLATYNERVKAMPESEKKKFRLKTGIPIPLVQLRVVDDKMNDVPKDEKTIGEIVVRAPWLTSVYVKNKEGTEALWRGDWMHTGDLAVMDEYGYIRIVDREKDAVKSGGEFIPSLVLEDAISSCSGVVENAVVGRPDEKWGERPVAFYTGTAKPDEIRKHLIEMVNAGRIAKFWIPDDFINIKEFAKTSTGKIDKKVLREMIKKEGHHHHHH,soluble
3,MSLFKSQTAILPEAGPFALYTLLKVRQNHAHVLQALKALPALVEEINQNQPGAELTVSVAFSKGFWSHFEMASPPELIDFPELGEGETHAPSTDVDVLIHCHATRHDLLFYTLRKGISDIAQDIEIVDETYGFRYLDARDMTGFIDGTENPKAEKRAEVALVADGDFAGGSYVMVQRFVHNLPAWNRLNLAAQEKVIGRTKPDSVELENVPAASHVGRVDIKEEGKGLKIVRHSLPYGSVSGDHGLLFIAYCHTLHNFKTMLESMYGVTDGKTDQLLRFTKAVTGAYFFAPSQVMLQELTLKNQEGGSHHHHHH,soluble
4,MSLFLIMSGAYVGQELESEFGRIPPSFLPLGNRRLFQHQVALAPQGVKVYLSLPESYVVSEIDLQWLEQNQVTIIATPDGLSLGASLVAALNISGHSLNAPLHILYGDTLFNQLPVGDDIVSVSTAKDSYNWAVLTNDDVDWLQDANTPMSHESQRIIDGYFKFSHPRELVRCITQSEWKFIAGLNRYHKSVGLSAVNSIGWLDFGHVNTYYHSKAEFTTQRAFNELTITAKWIEKSSIKNQKIAAEAYWFDNLPMAMRGFIPQYLGSQNSEGKISYRLEYLYLTALNELFVFSRLPSQIWQKILASAVEFLSLCLEQAVEPNAPINTLDILFADKTALRLNEFCAARHITLEDQWQFAGQDISLAQILRDSQKHLPDGKPLLGVLHGDFCFSNILYDFRANKIKTIDPRGMTPDGQKTLYGDIRYDLAKLSHSILGLYDWIIAGYYHVEIADNAIELKIAEQSHHKETQQGFIELIEQTFGLTAKNLYAMQIQLFLSMLPLHADDRRRQDALFANAFRLHQILLRLDQEGHHHHHH,soluble
5,MSLFLSNVILHQLRKNDNDELVVNYRAESLRNDTSTENLVAELHRVFNAKAGKGFGCFKSDSEFQLWLQEMRRGTLPFYEFSQQSAQRLKNELAKYPFADEGILVMAEYQSLATDYLFIGLLPLNQSLKVTEGLDISATDYLDINKMDIVARIDLSSYETDKESKRYLSYIKGRVGRKVADFFLDFLQADIGLDTKQQNQVLMQAVEDFCADAKFEKEEVISYKKQVYEYCNDQIKAGDEVRVQELSGELPPSNEGVNFFDFTREQGYQLEESFPADRSTVRKLTKYVGAGGGLNLSFDSLLLGERVFYDPETDTLTIKGTPPNLRDQLTRLRLEHHHHHH,soluble
6,MSLGAIVEVITIKNYSLKSENYEAEIDIPKIRGLKDKNLEQRLNSSFMEDGKRLYHQFQERMEKIQSSKNKGYKSLSLSYSVKNNSKKFLSIEMTKNEIEASSYVSKVHYTIDKKRQIVLTLPMLFKDDKYIKVISDNIKEQMREQMKKDSTKSYFIDEGHHHHHH,not soluble
7,MSLGASATRILFVDDEPSILKSLRRVTRSMSAECIFVDNGRDALALMRENPFDVVVSDMRMPEMDGATLLAEIARDYPETMRLVLSGFAEDDLILAAINEGRVWGFIHKPWDDHQLIVTLQHAVTTQQMMVERALLRRTVERYTSELKESFVSFVGGSLPMQAVYNQIERAAPSNASVFITGPSGTGKELAAEAIHKLSERKNGPFIALNCAAIPTELMESEIFGHVKGAFTGAVSARDGAATQAHNGTLFLDEIGEMDISLQAKLLRFIQTGSFQKVGGTKQENVNIRFVCATNRAPLDAIANGTLREDLYYRLNVVALHLPPLNQRENDPILLANTFLQRFAAQERKELVGFSSEASSLILGYDWPGNVRQLQNCIHNVVVMSAGPLITPNDIAIALQLDPQQVATEGHHHHHH,not soluble
8,MSLGECPEYGKVKWIGNIYCHKYDEATTTLLSISTGTQSLGQDLKQRQAQLSIAKLTALAAEVQDLEKLNEIQTELDLIDGQILLSQELQESTLNPLFKDFTTYRTLFKYLSDAVKRRESLSVPHMIELFTLLNQDTSYGFALSILAIDHTLPTEVKKYCEYQIWRRCLLSDENAVRQTLRVFFKQQFYHQSIELPIIDNLANEKLITDSYLDGMYHGLTDLNKLASDVKREVALFANSNLDVTMLQSIIGEINEETGNQCVINYATNTIETSPTSEGHHHHHH,soluble
9,MSLGEPAQPGAKKYVLFDVDGTLIDAVDNQRRVWRVWAERYGLDPGEVYQVALRTRPMETFAQVAPDRDPQECLAALHELEDEDVRSGVYAAFDGASELLDALPPESWALVTSNYEHRVRGRFARTGLPVPSIIVDAASVEEGKPSPVPYLLAAKRLGADPQDCLVIEDAPSGVRSALRAGMTVWGVNAPVAVDGVHRHFGSLREAIRDILAVTSGTRPHEPRGSAAVEGHHHHHH,soluble
10,MSLGFAGDGKTYTASELAIGLVMLMRQRGIEAGNRPVMFLDTETGSDWVKPRFDAENIELFTAKTRSFVDLLEAINEAESSGSVMIIDSISHFWTGLCDEYARRRNRKRGLEFSDWAWLKQEWRRFTDRFVNSQAHIIMCGRAGYEYDFFEGDDGKRQLAKTGIKMKAETETGYEPSIRIQMEKQMNIETGQVWRTARILKDRSTRIDGQVFSNPTFKNFLPHIESLNLGGEHPGIDTSRDNSELFANDGTPTWLKEKRAKEIALDEIIELLNKHHGGTSNDAKRAKADLLEKTFTSRSWERIKGMDWPTIKAGRNALWIELEGVEYAFPDEGHHHHHH,soluble
11,MSLGINGFTAHAQKLSLIYNTLDSRDMPTRGLYAKAAIEGSAEFLGSDASYRHYEAELKGYFPLKEARYITVARVAYNQTLGSDVPFLERSILGGESTLRGYGRNRFIDSSYFLCNLEERIRLFRWSVFDVNTDWEVAPFIDLGAVMESLDKTRSKNFEFNPGIGFRAVVRPNIVGRVDIGVGNDGPAVFVGLGYPFEGHHHHHH,not soluble
12,MSLGKHVTIGFAGPQADHGWLNAINDNAKSRAKKYGDVTLEITEGSNDTAAQIGQIETLINKKVDVLVVLPADGKALTQVGLKAMRAGIPVVNLDRIFNSPQAYRCWIGGDNYGMGLSAGRYIGEKLKDKPNARVVELAGLDNLELTKQRTQGFDAALKNYPNIRKVARQAAEFTVESGQSKMAQLLQAQSRFDALWNHDDDQGVGALRAIKQAGRDDFLMVGGAGALSAFQAIKADDGVLKATVLYPPTMAASAIDLARALGQGKGVGGLAEFEIPASLTLYSAVVDKDNVGQYMSTGFREGHHHHHH,soluble
13,MSLGMHGAAHIVWDWNGTLFHDNAAIIGATNAAFAELGLEPITLERYRALYCVPVPKFYERLIGRLPTDAEWEIMDEIFHRYYAEHRVGCGLTEGAAELLVEWQSAGHSQSILSMYVHDELVPLVRGFGIEPHFIRVDGRTGPSGGSKAEHMVRHIGALAGVAGVDPARTVVIGDAADDAVAALHVGAQAVLYTGGSHSRASLEGVGVPVVDTLAEAVEEAGRLAAEGHHHHHH,soluble
14,MSLGNAMNITSCISQSECSCQLSESTSDTNSNSSFKTRSLGYDRSSQSLSISDVELGFKSVTETSSNNYRLRRIIESNDFFKDVMYKFFLLRENSLVLDQSKSYYSDKDPHYSIICSDYYVFALRRILIEGHHHHHH,not soluble
15,MSLGNRMKVCIYGAGAIGGYLGVQLAQSGAADVSLVARGAHLQAMKENGLKLLIEGEERVIKPNATDKPAELGVQDVIIICLKAHSITGAIDSMKPLLGSHTRIVTAVNGVPYWYFHKHGGNEFEGRTLESIDPGGRQWKELGPERGIGCIVYPATELEAPGVIRHVYGDKFPIGEPSGETTSDVENLSKVFEASGLKAPILDRIRDEIWLKLWGNVCFNPISALTHATLDVIASDPATRALSKAMMLEAQQIAETFGVKFRVDVERRIEGARKVGAHKTSMLQDLERGRPMEIDPLVTVVQEMGRMTNIPTPAIDSVLGLVIQRAKVAGLYEGHHHHHH,soluble
16,MSLGNYAKPIGTAPVTANPTDYSSALVCLNQYARTNRIVAPRIAIGRIADYTGKEESDGSGRKVTQGASLMAVSAFAKAGMPLVERFDTSVSEFELKYANNKLISDRPNPAPDAPADFRKILAGQVPGSDFYVIGGITELNYNIRSAGIDAYAGDKDTDGLKGNFRRRVFIMNIALDLRLVNTRTLEVVDVISYQKQVVGREVSAGVFDFLNGNLFDISAGRGALEPMQLAVRALIERATVEMAANLYGMPGPESCLRFDPFGDATVGQTGAFTPAYNNLGTNNAQTRDDPSRWNARRDPDIRDAKRGRYEGHHHHHH,not soluble
17,MSLGRAGRGIDSAVGILLCGSEDRAIHKFFRESAFPAEAQIHEILNVLSVNDGLTLRGIEQRTNLRYGQIEKALKLLVAENPSPVVYTEKLWRRTIVSFSPDHERINHLMNQRKSELADVESYITTKECKMQFLRRALDEPGAEHCGKCSSCLQHPLLSPDIDSGLLHAANLFIKHADLSLNLNKQVAAGAFTQYGFKGNLPASLQGSTGRILSRWGYSGWGKQVAQEKKTGRFSDELVEACAEMVRQRWNPHPEPTWVCCVPSLKHLDLVPDFESTSTWFLILPGDWRRNLAYLLLMPLKKSWTIHRRKCSKTVSTSVKISTGREGHHHHHH,not soluble
18,MSLGRDKDLNILCWEGYNSAQVLDPFRKLTGATVKAESSTNDPTMINRLRAGETNVWDLINVNNPWARKILWPQNLIKPLDRAEFEPFFDKMLPEFKAPYRWAMSDDGKDLLGMAQRFGPFCFVVDTDKISRQTAEDQGWDLWNDKALAGRYGIQESDDWNVFGLFLIAGINPFKTHTEAELAKFEETAKAVFKGAKVVGDMASMNQALVSGEIDLYLSGGTYTVSPARAEGLGNLRGITPLRGPIDGKGGVMWVEITSQVNNPQLSPLAGQFLKHVQTPQVAHTVAFAEGTFNPIAQMGNPDCFKLFSKAELDAIQWDSLAEEMARSVAYDIVPDYDKALDLMTAAKRVRGEGHHHHHH,soluble
19,MSLGSGHAGKARSAVTTTDADWKPVADALGRSGKLGDNNTAYRINLPRNDLHITSYGVDIKPGLSLGGYAAFARYDNNETLLMGDLVITEEELPKVTDALQAHGIAQTALHKHLLQQDPPVWWTHIHGMGDAARLAQGLKAALDATTIGPPTPPPARQPPVDIDVAGVDQALGRKGTQDGGLMKYSIPRKDTIIEDGHVLPAVSLNLTTVINFQPVGRGRAAINGDFILIAPEVQEVIRAMRAGNITIVELHNHGLTEEPRLFYMHYWAVDDAVTLARALRPAMDATNLQSEGHHHHHH,soluble
